# Assay results published in US20050232926A1, “Antibodies specific for cancer associated antigen SM5-1 and uses thereof” (Oncomax Acquisition Corp., priority 2003, published 2005).
# Residues, ends and D or L forms follow the SMILES beside them. *: point of attachment. Cbz = O=C(OCc1ccccc1)*; CH2F = FC*
# B1: huSM5-1: human SM5-1 specific monoclonal antibody from phage library; VH SEQ ID NO:9, VL SEQ ID NO:10 (antibody, listed as Homo Sapiens, V domains shown)
# VH: QVQLVESGGGVVQPGCSLRLSCSSSGYTFTSYTMHWVRQAPGKGLEWIGYINPYNDGGKYNEKFKWRFSISSDKSKNTLFLQSDSLTPEDTGVYYCARGSRYDWYGDYWGQGTPVTVSS
# VL: DIQMTQSPSSLSGSVGDRVTITCDSSQSVLYSSKDDNYLAWYQQGPGKAPSLLIYYASDRESDVPSRFSGSGSGDDYTLTISSLQPEDAATYYCHQWFSSYTFDQGTKLNITR
# Columns and labels:
# QYC cells = experiment: Inhibition of huSM5-1 induced apoptosis by caspase inhibitors; format: cell-based, human; details: QYC cells incubated with caspase inhibitor at 50 mol/l for 2 h, then 50 ng/ml huSM5-1 antibody
# Protocol: To determine whether caspase is involved in huSM5-1 antibody induced apoptosis, a variety of caspase inhibitors were tested to observe the inhibitory rate of apoptosis. The caspase inhibitors tested included common caspase inhibitor (Z-VAD-FMK), caspase-1 inhibitor (Z-WEHD-FMK), caspase-2 inhibitor (Z-VDVAD-FMK), caspase-3 inhibitor (Z-DEVD-FMK), caspase-4 inhibitor (Z-YVAD-FMK), caspase-6 inhibitor (Z-VEID-FMK), caspase-8 inhibitor (Z-IETD-FMK), caspase-9 inhibitor (Z-LEHD-FMK), caspase-10 inhibitor (Z-AVED-FMK), caspase-13 inhibitor (Z-LEED-FMK). QYC cells were incubated with caspase inhibitor at 50 mol/l for 2 h. QYC cells were then treated with 50 ng/ml huSM5-1 antibody. The inhibitory rates of these inhibitors were: 72% for pan-caspase inhibitor, 52% for caspase-10 inhibitor, 28% for caspase-6 inhibitor, 27% for caspase-1 inhibitor, 17% for caspase-8 inhibitor, 15% for caspase-13 inhibitor, 14% for caspase-4 inhibitor, 5% for caspase-9 inhibitor, 1% for caspase-2 inhibitor, 1% for caspase-3 inhibitor.
# melanoma cell line A2058 [1] = experiment: Viable cell count after huSM5-1 treatment; format: cell-based, human; details: final volume 500 μl, 24 h, relative to wells without huSM5-1
# Protocol: (§1) The melanoma cell line A2058 was expanded to 10^6/ml in RPMI-1640 culture medium. The cell suspension (20 μl) and different amount of huSM5-1 (0, 1, 5, 10, 20, 50, 100 μl) were added into each well of the 96 well plate. The antibody huSM5-1 was diluted in RPMI-1640 medium containning 10% FCS to reach a final concentration of 1 μg/μl before it was added into the well. RPMI-1640 medium containing 10% FCS was added to each well to make a final volume of 500 μl in each well. Each condition was performed in triplicate. Cells were incubated at 37° C. in a humidified incubator at 5% CO2 for 24 h. At the end of the incubation, cells were suspended and viable cells were examined under microscope or assessed using MTT.
# Viable cells in 0.2 ml cell suspension from each well were counted. Viable cells are expressed as percentage of viable cells compared to the wells without addition of huSM5-1.
# caspase-10 [2] = experiment: Caspase-10 colorimetric activity assay in huSM5-1 treated QYC cells; format: cell-based, human
# Protocol: (§2) To further confirm that huSM5-1 induced apoptosis is caspase-10 related, caspase-10 color comparing analysis kit was used to examine the increase of caspase-10 bioactivity in QYC and XJC cells. Caspase-10 activity was examined with caspase-10 analysis kit (R&D, USA) according to manufacture's instruction. Cells were incubated with 50 ng/ml huSM5-1 antibody for a certain period of time. Cells were then centrifuged and lysed in a lysis buffer (25 ul/10^6 cells) on ice for 10 min. The lysates were centrifuged, and the supernatant was transferred into new tubes and kept on ice. The enzyme activity of caspase was examined on 96-well micro-titer plate. Each reaction included 50 μl supernatant from cell lysate, 50 μl 2× reaction buffer, 10 μl fresh DTT storage solution. In addition, 5 ul caspase-10 color-comparing substrate (AEVD-pNA) was added into the reaction. The plate was incubated at 37° C. for 1-2 h and absorbance at 405 nm was then measured. The increase of caspase-10 related activity was calculated according to the following equation: Caspase-10 activity (%)=(B−C)/(A−C)×100%
# (§3) “A” represents OD value of supernatant from cell lysates without huSM5-1 antibody treatment; “B” represents OD value of supernatant from cell lysate treated with huSM5-1; “C” represents OD value of negative control. Each test was done in triplicate.
# caspase-10 [3] = experiment: Caspase-10 colorimetric activity assay in huSM5-1 treated XJC cells; format: cell-based
# Protocol: as §2, §3
# [4] = tested on: hepatocellular carcinoma cell line QYC; experiment: Cell growth inhibition by huSM5-1, MTT assay; format: cell-based, human
# Protocol: Cell growth inhibition by huSM5-1 antibody was tested using MTT assay. MTT assay is based on the principle that viable cells can reduce yellow MTT into blue purple crystals. Cells of interest (1×10^3) were incubated with various concentrations of antibodies. After a period of time, 20 μl MTT (0.5 mg/ml) was added into the cell culture medium and was incubated for 2 h. After the incubation, culture medium was removed and 150 μl DMSO was added to solubilize the MTT precipitate. The reduced MTT was examined by measuring absorbance at 490 nm using Benchmark optical absorption reading machine (Bio-Rad Laboratories). The cell growth inhibition was calculated according to the following equation: Inhibition (%)=(B−C)/(A−C)×100
# “A” represents the OD value of cells without huSM5-1 treatment; “B” represents the OD value of huSM5-1 treated cells; and “C” represents the OD value of negative control. Each condition was performed in triplicate.
# Growth inhibition by huSM5-1 were tested in four tumor cell lines (hepatocellular carcinoma cell QYC and XJC, breast cancer cell line MDA-MB-231, and melanoma cell line CRL-1872) using MTT assay. Cells were treated with different amount of huSM5-1 (50 ng/ml, 10 ng/ml, 1 ng/ml) for 24 h, 48 h, 72 h, and 96 h. The most inhibition occurred when the concentration of the antibody was at 50 ng/ml and after 72 h treatment.
# melanoma cell line A2058 [5] = experiment: MTT assay of viable cells after huSM5-1 treatment; format: cell-based, human; details: 570 nm, final volume 500 μl, 24 h
# Protocol: as §1
# MTT solution (5 mg/ml) was added into 0.2 ml cell suspension describe above at 1:10 dilution. The cells were then incubated at 37° C. for 30 min and optical adsorption at 570 nm for each sample was read.
molecule,measurement,setting,value
"CC[C@H](C)[C@H](NC(=O)OCc1ccccc1)C(=O)N[C@@H](CCC(=O)OC)C(=O)N[C@H](C(=O)N[C@@H](CC(=O)OC)C(=O)CF)[C@@H](C)O [caspase-8 inhibitor, Z-IETD-FMK] (Cbz-IE(OMe)TD(OMe)-CH2F)",inhibitory rate of huSM5-1 induced apoptosis,QYC cells,17%
"COC(=O)CC[C@H](NC(=O)[C@H](CCC(=O)OC)NC(=O)[C@H](CC(C)C)NC(=O)OCc1ccccc1)C(=O)N[C@@H](CC(=O)OC)C(=O)CF [caspase-13 inhibitor, Z-LEED-FMK] (Cbz-LE(OMe)E(OMe)D(OMe)-CH2F)",inhibitory rate of huSM5-1 induced apoptosis,QYC cells,15%
"CC[C@H](C)[C@H](NC(=O)[C@H](CCC(=O)OC)NC(=O)[C@@H](NC(=O)OCc1ccccc1)C(C)C)C(=O)N[C@@H](CC(=O)OC)C(=O)CF [caspase-6 inhibitor, Z-VEID-FMK] (Cbz-VE(OMe)ID(OMe)-CH2F)",inhibitory rate of huSM5-1 induced apoptosis,QYC cells,28%
"COC(=O)CCC(NC(=O)C(NC(=O)C(C)NC(=O)OCc1ccccc1)C(C)C)C(=O)NC(CC(=O)OC)C(=O)CF (stereo not drawn) [caspase-10 inhibitor, Z-AVED-FMK] (Cbz-AVE(OMe)D(OMe)-CH2F; configuration not given here)",inhibitory rate of huSM5-1 induced apoptosis,QYC cells,52%
"COC(=O)C[C@H](NC(=O)[C@H](C)NC(=O)[C@@H](NC(=O)[C@H](CC(=O)OC)NC(=O)[C@@H](NC(=O)OCc1ccccc1)C(C)C)C(C)C)C(=O)CF [caspase-2 inhibitor, Z-VDVAD-FMK] (Cbz-VD(OMe)VAD(OMe)-CH2F)",inhibitory rate of huSM5-1 induced apoptosis,QYC cells,1%
"COC(=O)CC[C@H](NC(=O)[C@H](CC(=O)OC)NC(=O)OCc1ccccc1)C(=O)N[C@H](C(=O)N[C@@H](CC(=O)OC)C(=O)CF)C(C)C [caspase-3 inhibitor, Z-DEVD-FMK]",inhibitory rate of huSM5-1 induced apoptosis,QYC cells,1%
"COC(=O)C[C@H](NC(=O)[C@H](C)NC(=O)[C@@H](NC(=O)OCc1ccccc1)C(C)C)C(=O)CF [pan-caspase inhibitor, Z-VAD-FMK] (Cbz-Val-Ala-Asp(OMe)-CH2F)",inhibitory rate of huSM5-1 induced apoptosis,QYC cells,72%
"COC(=O)CC[C@H](NC(=O)[C@H](Cc1c[nH]c2ccccc12)NC(=O)OCc1ccccc1)C(=O)N[C@@H](Cc1cnc[nH]1)C(=O)N[C@@H](CC(=O)OC)C(=O)CF [caspase-1 inhibitor, Z-WEHD-FMK] (Cbz-WE(OMe)HD(OMe)-CH2F)",inhibitory rate of huSM5-1 induced apoptosis,QYC cells,27%
"COC(=O)CC[C@H](NC(=O)[C@H](CC(C)C)NC(=O)OCc1ccccc1)C(=O)N[C@@H](Cc1cnc[nH]1)C(=O)N[C@@H](CC(=O)OC)C(=O)CF [caspase-9 inhibitor, Z-LEHD-FMK] (Cbz-LE(OMe)HD(OMe)-CH2F)",inhibitory rate of huSM5-1 induced apoptosis,QYC cells,5%
"COC(=O)C[C@H](NC(=O)[C@H](C)NC(=O)[C@@H](NC(=O)[C@H](Cc1ccc(O)cc1)NC(=O)OCc1ccccc1)C(C)C)C(=O)CF [caspase-4 inhibitor, Z-YVAD-FMK]",inhibitory rate of huSM5-1 induced apoptosis,QYC cells,14%
B1,Cell survival (%),melanoma cell line A2058 [1]; huSM5-1 addition 1 μl (1 μg/μl),87.8%
same,Cell survival (%),melanoma cell line A2058 [1]; huSM5-1 addition 5 μl (1 μg/μl),68.8%
same,Cell survival (%),melanoma cell line A2058 [1]; huSM5-1 addition 10 μl (1 μg/μl),53.2%
same,Cell survival (%),melanoma cell line A2058 [1]; huSM5-1 addition 20 μl (1 μg/μl),42.6%
same,Cell survival (%),melanoma cell line A2058 [1]; huSM5-1 addition 50 μl (1 μg/μl),32.6%
same,Cell survival (%),melanoma cell line A2058 [1]; huSM5-1 addition 100 μl (1 μg/μl),22.6%
same,Caspase-10 activity (%),"caspase-10 [2]; 50 ng/ml huSM5-1, 48 h",13%
same,Caspase-10 activity (%),"caspase-10 [2]; 50 ng/ml huSM5-1, 96 h",51%
same,Caspase-10 activity (%),"caspase-10 [3]; 50 ng/ml huSM5-1, 48 h",17%
same,Caspase-10 activity (%),"caspase-10 [3]; 50 ng/ml huSM5-1, 72 h",38%
same,Caspase-10 activity (%),"caspase-10 [3]; 50 ng/ml huSM5-1, 96 h",28%
same,growth inhibition,"[4]; 1 ng/ml, 24 h",7%
same,growth inhibition,"[4]; 1 ng/ml, 48 h",~5%
same,growth inhibition,"[4]; 1 ng/ml, 72 h",10%
same,growth inhibition,"[4]; 1 ng/ml, 96 h",2.5%
same,growth inhibition,"[4]; 10 ng/ml, 24 h",11%
same,growth inhibition,"[4]; 10 ng/ml, 48 h",~17%
same,growth inhibition,"[4]; 10 ng/ml, 72 h",19%
same,growth inhibition,"[4]; 10 ng/ml, 96 h",11%
same,growth inhibition,"[4]; 50 ng/ml, 24 h",29%
same,growth inhibition,"[4]; 50 ng/ml, 48 h",about 28%
same,growth inhibition,"[4]; 50 ng/ml, 72 h",43%
same,growth inhibition,"[4]; 50 ng/ml, 96 h",36%
same,Optical adsorption (%),melanoma cell line A2058 [5]; huSM5-1 addition 1 ul (1 μg/μl),96.3%
same,Optical adsorption (%),melanoma cell line A2058 [5]; huSM5-1 addition 5 ul (1 μg/μl),84.9%
same,Optical adsorption (%),melanoma cell line A2058 [5]; huSM5-1 addition 10 ul (1 μg/μl),66.2%
same,Optical adsorption (%),melanoma cell line A2058 [5]; huSM5-1 addition 20 ul (1 μg/μl),47.7%
same,Optical adsorption (%),melanoma cell line A2058 [5]; huSM5-1 addition 50 ul (1 μg/μl),33.6%
same,Optical adsorption (%),melanoma cell line A2058 [5]; huSM5-1 addition 100 ul (1 μg/μl),20.1%
